{"source": "patent US12685781B2", "about": "“Anti-HER3 antibody-drug conjugate” (DAIICHI SANKYO COMPANY, LIMITED, priority 2014, dated 2026)", "key": {"HER3 [1]": {"biological_target": "T1, HER3 (Homo sapiens, UniProt P21860)", "assay": "Inhibition of HER3 signal, Western blotting in A549 cells", "format": "cell-based", "protocol": "A human lung cancer cell line A549 (CRS-300114) from Cell Lines Service was dissociated by trypsin treatment, and 50,000 living cells were inoculated to 3 mL of DMEM/F12 (Invitrogen Corp., #21331-020)+10% FBS (Invitrogen Corp., #10270-106) in each of 6 wells. After culturing the cells for 3 days, the medium was replaced with 2 mL of a fresh medium.\nThe antibody or each antibody-drug conjugate was added directly to 2 mL of a medium in each of the 6 wells such that the final concentration was 10 ug/mL (20 uL of a stock solution of 1 ug/uL antibody or antibody-drug conjugate was added).\nU1-59, the antibody-drug conjugate (3), the antibody-drug conjugate (10), or the antibody-drug conjugate (13) was used as the antibody or the antibody-drug conjugate. An untreated group was used as a control.\nThe cells were cultured for 2 days, washed once with PBS, and treated with 100 uL of an ice-cooled buffer (50 mM 4-(2-hydroxyethyl)-1-piperazineethanesulfonic acid (HEPES), pH 7.5, 150 mM sodium chloride, 1 mM ethylenediaminetetraacetic acid (EDTA), 12.5% glycerin, 1% Triton X-100, and 10 mM sodium pyrophosphate tetrabasic supplemented with proteinase inhibitors (Roche Diagnostics, Inc., #11697 498 001), 10 mM sodium fluoride, 1 mM sodium vanadate, 1 mM phenyl-methane-sulfonyl-fluoride (PMSF), and 10 ug/mL aprotinin (Sigma-Aldrich Co. LLC, A1153)) for 30 minutes at 4 C for lysis. […]"}, "HER3 [2]": {"biological_target": "T1, HER3", "assay": "HER3 binding affinity by flow cytometry on HCC1569 cells", "set-up": "host or cells: HCC1569 (human breast cancer cell line)", "conditions": "read-out: Kd (nM), equilibrium binding affinity", "protocol": "A human breast cancer cell line HCC1569 (CRL-2330) from ATCC was cultured in an RPMI1640 medium (purchased from Invitrogen Corp., containing 10% […] (manufactured by Invitrogen Corp.) and 2 mM L-glutamine (manufactured by Invitrogen Corp.)). The cells were dissociated from the culture plate using ACCUTASE® SOLUTION (Millipore Corp., SCR005) or EDTA (5 mM, phosphate buffered saline (PBS, 137 mM sodium chloride, 2.7 mM potassium chloride, 1.47 mM potassium dihydrogen phosphate, and 10.5 mM disodium hydrogen phosphate)), and the number of living cells was measured by trypan blue treatment. The same numbers of cells suspended in a fluorescence-activated cell sorting (FACS) buffer (PBS containing 3% FBS and 0.004% sodium azide) were inoculated to 96-well U-bottom plates, and the cells were precipitated by centrifugation and suspended in 100 uL of an ice-cooled antibody or antibody-drug conjugate dilution or FACS buffer. […]\nU1-59, the antibody-drug conjugate (3), the antibody-drug conjugate (10), or the antibody-drug conjugate (13) was evaluated as the antibody or the antibody-drug conjugates. […]\nFluorescence signals from living cells were evaluated using Accuri C6 Flow cytometer (BD Biosciences/Accuri® Cytometers Inc., serial number 1424) and CFlow software (CFlow sampler Version 1.0.264.13). […]"}}}
{"substance": "U1-59: anti-HER3 human antibody; heavy and light chain variable regions SEQ ID NOs: 70 and 72; produced per WO 2007/077028", "values": [{"measurement": "HER3 phosphorylation compared with untreated cells", "setting": "HER3 [1]; A549, 10 ug/mL, 2 days", "value": "reduced"}, {"measurement": "HER3 expression compared with untreated cells", "setting": "HER3 [1]; A549, 2 days", "value": "reduction in HER3 expression was also observed"}, {"measurement": "Kd", "setting": "HER3 [2]", "value": 1.6, "unit": "nM"}]}
